Source: paper PMC6993239
pKd: −log10 of the molar value.

How the values were obtained:
[1] = target: recombinant human FcγRI, histidine-tagged (human) (UniProt P12314); assay: SPR
[2] = target: recombinant human FcγRI, histidine-tagged (human) (UniProt P12314); assay: SPR; Biacore T200; His-tagged huFcγRI (0.8 nM) captured on an anti-histidine antibody CM5 chip; pertuzumab or conjugates 0.78-100 nM as analyte, 5 min association, 5 min dissociation, 30 μL/min; HBS-P+ with 50 μM EDTA; 1:1 fit (RI set to 0)
[3] = target: histidine-tagged mouse FcγRI (mouse) (UniProt P26151); assay: SPR; Biacore T200; His-tagged muFcγRI (2.4 nM) captured on an anti-histidine antibody CM5 chip; pertuzumab or conjugates as analyte, association and dissociation 120 s each; steady-state analysis
UniProt P26151, sequence (P26151 25-297): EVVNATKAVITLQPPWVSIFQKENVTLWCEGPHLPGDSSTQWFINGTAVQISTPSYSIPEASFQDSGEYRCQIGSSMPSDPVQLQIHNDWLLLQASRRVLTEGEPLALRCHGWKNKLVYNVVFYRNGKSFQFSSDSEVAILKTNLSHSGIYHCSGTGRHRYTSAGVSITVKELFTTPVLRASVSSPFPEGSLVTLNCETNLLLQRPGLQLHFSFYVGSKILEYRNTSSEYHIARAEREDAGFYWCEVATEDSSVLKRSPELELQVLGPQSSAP

UniProt P12314, sequence (P12314 16-292): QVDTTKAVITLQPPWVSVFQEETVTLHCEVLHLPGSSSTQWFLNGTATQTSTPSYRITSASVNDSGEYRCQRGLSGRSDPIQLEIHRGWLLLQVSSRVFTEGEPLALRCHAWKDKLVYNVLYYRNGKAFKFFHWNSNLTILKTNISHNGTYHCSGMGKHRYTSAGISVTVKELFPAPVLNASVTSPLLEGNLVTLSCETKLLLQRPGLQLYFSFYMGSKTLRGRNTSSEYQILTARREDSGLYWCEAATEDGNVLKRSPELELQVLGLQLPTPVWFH

| koff [1] [s⁻¹] | interaction half-time [2] [min] | pKd [3] | pKd [2] | Substance |
| --- | --- | --- | --- | --- |
| 0.00387 | – | – | – | DFO-^sspertuzumab-EndoS |
| – | 8 | 6.68 | – | DFO-^sspertuzumab-βGal (antibody) |
| – | 3 | 5.96 | 7.76 | DFO-^sspertuzumab-EndoS (antibody) |
| 0.00156 | – | – | – | DFO-^nsspertuzumab |
| – | 7.3 | 6.60 | – | native pertuzumab (antibody) |
| – | 7.4 | 6.60 | 8.39 | DFO-^nsspertuzumab (antibody) |
